Experimental data from article PMC4947182.

B1: JUNO (folate receptor 4, IZUMO1R): N185D (protein)
parent chain: MAQWWQILLGLWAVLPTLAGDKLLSVCMNSKRHKQEPGPEDELYQECRPWEDNACCTRSTSWEAHLEEPLLFNFSMMHCGLLTPACRKHFIQAICFHECSPNLGPWIQPVVPNGQEEQRVWGVPLCQEDCEDWWRACHSSLTCKSNWLHGWDWSEEKKHCPAHEPCLPFSYHFPTPDDLCEKIWNNTFKASPERRNSGRCLQKWFEPTLSNPNVEVALHFAGSALAPQLSYTLPAFSLCLLFHP
B2: JUNO (folate receptor 4, IZUMO1R): N73D (protein)
parent chain: MAQWWQILLGLWAVLPTLAGDKLLSVCMNSKRHKQEPGPEDELYQECRPWEDNACCTRSTSWEAHLEEPLLFNFSMMHCGLLTPACRKHFIQAICFHECSPNLGPWIQPVVPNGQEEQRVWGVPLCQEDCEDWWRACHSSLTCKSNWLHGWDWSEEKKHCPAHEPCLPFSYHFPTPDDLCEKIWNNTFKASPERRNSGRCLQKWFEPTLSNPNVEVALHFAGSALAPQLSYTLPAFSLCLLFHP

What was measured:
[1] = soluble expression of ectodomain in Sf9 cells; details: glycan lost; control: WT JUNO ectodomain
[2] = mRNA complementation of Juno KO eggs, fertilization rate; details: glycan lost; control: Juno KO eggs injected with WT mJuno mRNA

| Protein | expression_or_secretion [1] | other: sperm-egg fusion, other: percent eggs fertilized [2] |
| --- | --- | --- |
| B1 | abolishes |  |
| B2 | no change | no change, 94.7 vs 93.5 |
